Molecular target: T1, Spo0J R82A (Bacillus subtilis, UniProt P26497 1-282, R82A)
T1 sequence: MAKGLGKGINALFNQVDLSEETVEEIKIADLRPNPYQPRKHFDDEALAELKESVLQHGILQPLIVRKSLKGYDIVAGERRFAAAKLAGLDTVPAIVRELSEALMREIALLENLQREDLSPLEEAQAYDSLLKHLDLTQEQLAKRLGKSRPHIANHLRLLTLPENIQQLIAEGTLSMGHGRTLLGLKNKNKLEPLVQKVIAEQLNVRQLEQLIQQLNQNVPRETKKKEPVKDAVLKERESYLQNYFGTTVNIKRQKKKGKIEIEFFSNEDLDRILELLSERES
Assay: white light interferometry (BLItz), Hill fit (n=1.9±0.5); 150 mM NaCl, 0.02% Tween-20; apparent Kd; PIFE: 20 mM Tris pH 7.5, 100 ug/ml BSA, 100 mM NaCl (150 mM for Spo0J R82A Kd), flow 100 ul/min; BLItz: 20 mM Tris pH 7.5, 150 mM NaCl, 100 ug/ml BSA, 0.02% Twe

B1: 39-bp scrambled parS duplex (oTG044F/oTG043R) (dsDNA)
DNA 1: CAGTTGAATCTGACAAATGACTAACAATGAGAGCAAAAA
DNA 2: TTTTTGCTCTCATTGTTAGTCATTTGTCAGATTCAACTG
- Kd: 131 ± 24.3 nM

Source: article PMC4786781
